Test results from article PMC2948610.

What was measured:
Assay in all cases: thioflavin T fluorescence
[1] = molecular target: [Y7A,Y16A]MSP2_(1–25) (Plasmodium falciparum)
[2] = molecular target: [F11A,I12A]MSP2_(1–25) (Plasmodium falciparum)
[3] = molecular target: MSP2_(1–25), recombinant 25-residue peptide corresponding to the entire conserved N-terminal domain of mature MSP2 (Plasmodium falciparum)

Work on [Y7A,Y16A]MSP2_(1–25) (peptide) yielded a lag time of fibril formation [1] of 1 h and a time to maximum ThT fluorescence (fibril formation) [1] of 2 h.
Substance [F11A,I12A]MSP2_(1–25) (peptide) has a lag time of fibril formation [2] of 3.5 h and a time to maximum ThT fluorescence (fibril formation) [2] of 9 h.
Work on “MSP2_(1–25), recombinant 25-residue peptide corresponding to the entire conserved N-terminal domain of mature MSP2” yielded a lag time of fibril formation [3] of 1 h and a time to maximum ThT fluorescence (fibril formation) [3] of 2 h.
